Measurements as given in article PMC7278498, “Crystal structures of the GH18 domain of the bifunctional peroxiredoxin–chitinase CotE from Clostridium difficile” (Acta Crystallographica. Section F, Structural Biology …, 2020).

Columns and labels:
[1] = biological target: T1, pentapeptide Gly-Pro-Ala-Met-Lys (C. difficile); experiment: crystal structure; monoclinic form, P2_(1), 1.3 Å; 200 mM ammonium phosphate, 22.5% PEG 3350, 291 K; one protein molecule per asymmetric unit; peptide found in the active-site groove; conditions: both partners purified
T1 construct: residues 349 and 350 of CotE of Clostridium difficile; the side chain of residue 5 (Lys) is uncertain in the density; also called GPAMK; pentapeptide ligand; source: derived from the N-terminus of the E. coli-made CotE(349–712) after HRV 3C protease cleavage; co-purified and co-crystallised with the protein

[2] = biological target: the molecule itself; experiment: crystal structure; hexagonal form, P6_(1)22, ∼2.1 Å; protein washed with 2 M guanidine hydrochloride on the Ni column (partially unfolded/refolded), tag then removed; 0.1 M sodium malonate pH 5.5, 13% PEG 3350, C8E5; dimer formed with a crystallographic symmetry mate

B1: CotE(349–712), C-terminal fragment of CotE comprising the GH18 chitinase domain (domain or fragment)
chain: GPAMKTLKDSKKLVRPQITDPYNPIVENANCPDINPIVAEYVLGNPTNVDAQLLDAVIFAFAEIDQSGNLFIPYPRFLNQLLALKGEKPSLKVIVAIGGWGAEGFSDAALTPTSRYNFARQVNQMINEYALDGIDIDWEYPGSSASGITSRPQDRENFTLLLTAIRDVIGDDKWLSVAGTGDRGYINSSAEIDKIAPIIDYFNLMSYDFTAGETGPNGRKHQANLFDSDLSLPGYSVDAMVRNLENAGMPSEKILLGIPFYGRLGATITRTYDELRRDYINKNGYEYRFDNTAQVPYLVKDGDFAMSYDDALSIFLKTQYVLRNCLGGVFSWTSTYDQANILARTMSIGINDPEVLKEELEGIYGQF
notes: CotE spore coat protein (peroxiredoxin-chitinase) of Clostridium difficile, residues 349-712; In the monoclinic crystal the model holds Ile363-Phe712; In the hexagonal crystal the protein is a 3D domain-swapped dimer with an intermolecular Cys376-Cys670 disulfide; also called CotE chitinase domain; chitinase domain of CotE; source: E. coli BL21(DE3), purified (HisTrap, HRV 3C cleavage, second …)
B1 was tested, and the binding result [1] was “binds” and the “stoichiometry N” value [2] was 2.
